Data as given in patent US20200299380A1 (published 2020).
Substitutions are numbered along the chain they refer to.

Key:
[1] = target: T1, MICB-Fc (R&D Systems 1599-MB) (human, UniProt Q29980 23-298, limits assumed); assay: SPR, antibody at 10 µg/ml injected over immobilized MICB-Fc
T1 construct: Bought; also called human MICB-Fc; not shown: Fc of the bought fusion protein
T1 sequence: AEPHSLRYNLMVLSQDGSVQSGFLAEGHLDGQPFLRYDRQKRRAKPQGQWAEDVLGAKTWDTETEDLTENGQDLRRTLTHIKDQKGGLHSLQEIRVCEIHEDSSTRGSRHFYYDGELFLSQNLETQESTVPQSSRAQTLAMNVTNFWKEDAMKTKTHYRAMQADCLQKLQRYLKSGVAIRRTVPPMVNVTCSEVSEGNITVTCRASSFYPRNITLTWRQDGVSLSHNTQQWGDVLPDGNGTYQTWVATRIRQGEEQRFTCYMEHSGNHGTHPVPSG
Description: (§1) For cross-binding study, the human ULBP-1-Fc (R&D systems*), MICB-Fc (*), ULBP-2-Fc (*) and ULBP-3-Fc (*) recombinant proteins were covalently immobilized respectively on the flow cell one to four of a CM5 sensorchip. Anti-MICA antibodies (at a constant concentration of 10 μg/ml) were injected for 2 minutes at a flow rate of 10 μl/min onto the four flow cells in parallel. After each cycle, Sensorchip was regenerated by a five second injection of appropriate regeneration buffer.

[2] = target: T2, human ULBP-2-Fc (R&D systems) (human, UniProt Q9BZM5 26-217, limits assumed); assay: SPR, antibody injected over immobilized ULBP-2-Fc
T2 construct: Bought; not shown: Fc of the bought fusion protein
T2 sequence (looked up): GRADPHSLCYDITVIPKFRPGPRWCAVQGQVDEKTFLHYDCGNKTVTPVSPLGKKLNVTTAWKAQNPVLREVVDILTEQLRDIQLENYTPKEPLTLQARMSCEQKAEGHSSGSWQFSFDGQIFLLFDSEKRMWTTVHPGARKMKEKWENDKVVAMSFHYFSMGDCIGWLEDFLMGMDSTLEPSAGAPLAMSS
Description: as §1

[3] = target: T3, MICA*008 expressed at the cell surface (human, UniProt Q29983 24-297); assay: flow cytometry on C1R transfectant cells
T3 construct: also called C1R-MICA*008; C1R-MICA*08
T3 chain: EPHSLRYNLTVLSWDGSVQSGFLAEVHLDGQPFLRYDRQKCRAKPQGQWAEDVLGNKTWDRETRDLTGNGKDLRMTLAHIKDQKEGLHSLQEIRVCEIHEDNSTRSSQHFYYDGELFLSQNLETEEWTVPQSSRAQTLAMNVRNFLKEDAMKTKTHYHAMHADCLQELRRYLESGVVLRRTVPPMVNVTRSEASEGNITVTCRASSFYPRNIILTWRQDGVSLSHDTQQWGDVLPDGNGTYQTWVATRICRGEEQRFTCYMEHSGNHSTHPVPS
Description: The binding of antibodies obtained from the first, second and third immunization series (including CHG1-M-MIA-19E9, CHG1-M-MIA-9C10, CHG1-M-MIA-6E4, CHG1-M-MIA-20C6, CHG1-M-MIA-16A8, CHG1-M-MIA-12A10, CHG1-M-MIA-10A7, CHG1-M-MIA-18E8, CHG1-M-MIA-10F3, CHG1-M-MIA-15F9 and CHG1-M-MIA-14B4) were tested for binding to MICA-expressing CR1 transfectant cells C1R-MICA*001, C1R-MICA*004, C1R-MICA*007 and C1R-MICA*008 (Pr. A. Steinle, Eberhard-Karls University Tuebingen, Germany) described in Salih et al. (2003) Blood 102(4): […]. Binding was analyzed by flow cytometry.
Cells were harvested and stained in PBS 1×/BSA 0.2%/EDTA 2 mM buffer during 30 minutes at 4° C. using a dose-range of the anti-MICA mAbs. After two washes in staining buffer, cells were stained for 30 min at 4° C. with mouse anti-human IgG1-PE monoclonal antibodies (1/11). After two washes, stainings were acquired on a BD FACS Canto II and analyzed using the FlowJo software.

[4] = target: T4, MICA*007 expressed at the cell surface (human, UniProt Q29983 24-297); assay: flow cytometry on C1R transfectant cells, 4-parameter logistic fit
T4 construct: also called C1R-MICA*007; C1R-MICA*07
T4 chain: T3 chain with Y36C, V129M, E173K, S206G, R210W, I213T, T215S, R251Q

[5] = target: T5, MICA*001 expressed at the cell surface (human, UniProt Q29983 24-297); assay: cell-based or functional assay
T5 sequence: T3 chain with A24T, Y36C, E125K, V129M, E173K, S206G, R210W, I213T, T215S, R251Q

B1: CHG1-M-MIA-16A8 (antibody, V domains shown)
VH: EVQLVESGGGLVKPGGSLKLSCAASGFTFSRYAMSWVRQTPEKRLEWVATIFSGGSYTYYPDSVKGRFTISRDNANNTLYLQMSSLKAEDTAMYFCARPNWERTFDYWGQGTTLTVSS
VL: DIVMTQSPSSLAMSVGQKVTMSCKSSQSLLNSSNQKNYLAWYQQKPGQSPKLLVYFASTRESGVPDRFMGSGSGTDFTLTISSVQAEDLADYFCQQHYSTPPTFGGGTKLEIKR
notes: also called CHG1-M-MIA2-16A8; chimeric anti-MICA 16A8
B1: binds [1]; no binding (tested: 10 µg/ml) [2].

B2: CHG1-M-MIA-6E4 (antibody, V domains shown)
VH: EVQLVESGGALVKPGGSLKLSCAASGFTFSYYAMSWVRQTPEKRLEWVATISRGGNYIYYTDSVKGRFTISRDNAKNTLYLQMTSLRSEDTAMFYCASISDYDGAWLAYWGQGTTLTVSS
VL: DVLMTQTPLSLPVSLGDQASISCRSSQSIIHTNGNTYLEWYLQKPGQSPKLLIYKISNRFSGVPDRFSGSGSGTDFTLKISRVEAEDLGVYYCFQGSHVPWTFGGGTKLEIKR
notes: also called chimeric anti-MICA 6E4
In the case of B2, the binding result [3] is reported as “binds”, the EC50 [4] is reported as 1.23 µg/mL and the binding result [1] is reported as “binds”. The “CDC: EC50 of the increase in dead (7-AAD positive) Raji-MICA*01 cells with human complement” value [5] was 1.01 µg/mL and the binding result [2] was “no binding (tested: 10 µg/ml)”.

B3: CHG1-M-MIA-20C6 (antibody, V domains shown)
VH: QITLKESGPGILKPSQTLSLTCSFSGFSLSTSGMGVGWIRQPSGKGLEWLAHIWWDDDKYYNPSLKSQLTISKDTSRNQVFLRITSVDTADTATYYCARRTQGYFDYWGQGTTLTVSS
VL: DIVMTQSPATLSVTPGDRVSLSCRASQSISDYLHWYQQKSHESPRLLIKYASQSISGIPSRFSGSGSGSDFTLSINSVEPEDVGVYYCQNGHSFPWTFGGGTKLEIKR
notes: also called chimeric anti-MICA 20C6
B3 was tested, and the EC50 [4] was 0.4 µg/mL, the “CDC: EC50 of the increase in dead (7-AAD positive) Raji-MICA*01 cells with human complement” value [5] was 0.97 µg/mL and the binding result [2] was “no binding (tested: 10 µg/ml)”.
